Experimental data reported in patent US20120316071A1.

Assays:
[1] = target: rHuman Notch-1/Fc Chimera, CF (R&D Systems Cat#3647-TK) (human) (UniProt P46531); assay: ECL multispot (MSD) binding assay, antigens spotted on plate, 20 nM Fab
[2] = target: rHuman EGF R/Fc Chimera, CF (R&D Systems Cat#344-ER) (human) (UniProt P00533); assay: ECL (MSD) multispot binding assay, antigen spotted on plate, 20 nM Fab
[3] = target: rHuman ErbB2/Fc Chimera, CF (R&D Systems Cat#1129-ER) (human) (UniProt P04626); assay: as above
[4] = target: rHuman HGF R/c-MET/Fc Chimera, CF (R&D Systems Cat#358-MT/CF) (human) (UniProt P08581); assay: ECL multispot (MSD) binding assay, antigen spotted on plate, Fab 0.04 uM
[5] = target: rHuman IGF-1 sR, CF (R&D Systems Cat#391-GR) (human) (UniProt P08069); assay: as above
[6] = target: human DLL4, full-length, expressed on the surface of CHO cells (human) (UniProt Q9NR61); assay: cell-based or functional assay
[7] = target: rHuman Erythropoietin R/Fc Chimera, CF (R&D Systems Cat#963-ER) (human) (UniProt P19235); assay: ECL multispot (MSD) binding assay, antigens spotted on plate, 20 nM Fab
[8] = target: Recombinant Human DLL4 (R&D Systems Cat#1506-D4/CF) (human) (UniProt Q9NR61); assay: ECL multispot (MSD), antigen spotted, Fab in solution
[9] = target: rHuman CD44/Fc Chimera, CF (R&D Systems Cat#3660-CD) (human) (UniProt P16070); assay: as above
[10] = target: rHuman Erythropoietin R/Fc Chimera, CF (R&D Systems Cat#963-ER) (human) (UniProt P19235); assay: as above
[11] = target: rHuman HGF R/c-MET/Fc Chimera, CF (R&D Systems Cat#358-MT/CF) (human) (UniProt P08581); assay: as above
[12] = target: rHuman IGF-1 sR, CF (R&D Systems Cat#391-GR) (human) (UniProt P08069); assay: as above
[13] = target: rHuman Notch-1/Fc Chimera, CF (R&D Systems Cat#3647-TK) (human) (UniProt P46531); assay: as above
[14] = target: rHuman P-Cadherin/Fc Chimera, CF (R&D Systems Cat#861-PC) (human) (UniProt P22223); assay: as above
[15] = target: rHuman CD44/Fc Chimera, CF (R&D Systems Cat#3660-CD) (human) (UniProt P16070); assay: ECL multispot (MSD) binding assay, antigen spotted on plate, Fab 0.04 uM
[16] = target: rHuman Erythropoietin R/Fc Chimera, CF (R&D Systems Cat#963-ER) (human) (UniProt P19235); assay: as above
[17] = target: rHuman Notch-1/Fc Chimera, CF (R&D Systems Cat#3647-TK) (human) (UniProt P46531); assay: as above
[18] = target: rHuman P-Cadherin/Fc Chimera, CF (human) (UniProt P22223); assay: ECL Multispot (MSD) assay; antigen spotted on plate, Fab in solution
[19] = target: rHuman P-Cadherin/Fc Chimera, CF (R&D Systems Cat#861-PC) (human) (UniProt P22223); assay: ECL multispot (MSD) binding assay, antigens spotted on plate, 20 nM Fab
[20] = target: Recombinant Human DLL4 (R&D Systems Cat#1506-D4/CF) (human) (UniProt Q9NR61); assay: ECL Multispot (MSD), antigen spotted, Fab
[21] = target: rHuman HGF R/c-MET/Fc Chimera, CF (R&D Systems Cat#358-MT/CF) (human) (UniProt P08581); assay: ECL Multispot (MSD), antigen spotted, Fab
[22] = target: rHuman Notch-1/Fc Chimera, CF (R&D Systems Cat#3647-TK) (human) (UniProt P46531); assay: ECL Multispot (MSD), antigen spotted, Fab
[23] = target: rHuman IGF-1 sR, CF (R&D Systems Cat#391-GR) (human) (UniProt P08069); assay: ECL Multispot (MSD), antigen spotted, Fab
[24] = target: rHuman CD44/Fc Chimera, CF (R&D Systems Cat#3660-CD) (human) (UniProt P16070); assay: MSD Multispot ECL, antigen spotted on plate, Fab in solution; blank spot of the row 240
[25] = target: rHuman ErbB2/Fc Chimera, CF (R&D Systems Cat#1129-ER) (human) (UniProt P04626); assay: as above
[26] = target: rHuman IGF-1 sR, (IGF-1 sR), CF (R&D Systems Cat#391-GR) (human) (UniProt P08069); assay: as above
[27] = target: human Delta-like ligand 4 (DLL4), full-length, expressed on CHO cells (human) (UniProt Q9NR61); assay: cell-based or functional assay

Fab VH3-23_IGHD2-21*01>3_IGHJ6*01 H100E/S108P/Y113G Y110I & V2-13_IGLJ2*01
ECL multispot signal (ratio to blank; column not labelled) [1]: 2.5

Fab VH3-23_IGHD2-21*01>3_IGHJ6*01 H100E/S108P/Y113G/Y111H & V2-13_IGLJ2*01
ECL signal/blank ratio [2]: 2.9
ECL signal/blank ratio [3]: 3

Fab VH5-51_IGHD5-18*01>3_IGHJ4*01 G100K/G104T (H:KT) & V3-4_IGLJ1*01 S99A
ECL signal [4]: 909
ECL signal [5]: 943

IgG of VH1-46_IGHD6-6*01_IGHJ1*01 S102A/S103P/S104F/H111F I51V/N52L/S54T/G56H (APFF VLTH) & L6_IGKJ1*01 S28N/S30D/S31H S52L/A55S (NDH LS) (antibody)
Notch1 luciferase reporter luminescence, T98G reporter cells + CHO-DLL4, 0.8 nM IgG, replicate 1 [6]: 4440
Notch1 luciferase reporter luminescence, T98G reporter cells + CHO-DLL4, 0.8 nM IgG, replicate 2 [6]: 4520
Notch1 luciferase reporter luminescence, T98G reporter cells + CHO-DLL4, 0.8 nM IgG, replicate 3 [6]: 3900
Notch1 luciferase reporter luminescence, T98G reporter cells + CHO-DLL4, 0.8 nM IgG, replicate 4 [6]: 3980
Notch1 luciferase reporter luminescence, T98G reporter cells + CHO-DLL4, 4 nM IgG, replicate 1 [6]: 4260
Notch1 luciferase reporter luminescence, T98G reporter cells + CHO-DLL4, 4 nM IgG, replicate 2 [6]: 3860
Notch1 luciferase reporter luminescence, T98G reporter cells + CHO-DLL4, 4 nM IgG, replicate 3 [6]: 3950
Notch1 luciferase reporter luminescence, T98G reporter cells + CHO-DLL4, 4 nM IgG, replicate 4 [6]: 3760
Notch1 luciferase reporter luminescence, T98G reporter cells + CHO-DLL4, 20 nM IgG, replicate 1 [6]: 1250
Notch1 luciferase reporter luminescence, T98G reporter cells + CHO-DLL4, 20 nM IgG, replicate 2 [6]: 1270
Notch1 luciferase reporter luminescence, T98G reporter cells + CHO-DLL4, 20 nM IgG, replicate 3 [6]: 1170
Notch1 luciferase reporter luminescence, T98G reporter cells + CHO-DLL4, 20 nM IgG, replicate 4 [6]: 1190
Notch1 luciferase reporter luminescence, T98G reporter cells + CHO-DLL4, 100 nM IgG, replicate 1 [6]: 757
Notch1 luciferase reporter luminescence, T98G reporter cells + CHO-DLL4, 100 nM IgG, replicate 2 [6]: 807
Notch1 luciferase reporter luminescence, T98G reporter cells + CHO-DLL4, 100 nM IgG, replicate 3 [6]: 678
Notch1 luciferase reporter luminescence, T98G reporter cells + CHO-DLL4, 100 nM IgG, replicate 4 [6]: 688

Fab VH3-23_IGHD2-21*01>3_IGHJ6*01 H100E/S108P/Y113G Y110T & V2-13_IGLJ2*01
ECL multispot signal (ratio to blank; column not labelled) [7]: 3.5
ECL multispot signal (ratio to blank; column not labelled) [1]: 2.3

Fab VH5-51_IGHD5-18*01>3_IGHJ4*01 G100K/G104T (H:KT) & V3-4_IGLJ1*01 Y93A
ECL signal [4]: 1130
ECL signal [5]: 1050

Fab VH3-23_IGHD3-10*01>3_IGHJ6*01 Y112P & O12_IGKJ1*01
ECL signal/blank ratio [8]: 1
ECL signal/blank ratio [9]: 1.1
ECL signal/blank ratio [10]: 0.9
ECL signal/blank ratio [11]: 1.1
ECL signal/blank ratio [12]: 0.8
ECL signal/blank ratio [13]: 1.1
ECL signal/blank ratio [14]: 1.4

Fab VH5-51_IGHD5-18*01>3_IGHJ4*01 G100K/G104T (H:KT) & V3-4_IGLJ1*01 G97A
ECL signal [15]: 642
ECL signal [16]: 528
ECL signal [4]: 1110
ECL signal [5]: 1030
ECL signal [17]: 660

Fab VH5-51_IGHD5-18*01>3_IGHJ4*01 G100K/G104T (H:KT) & V3-4_IGLJ1*01 M94A
ECL signal [4]: 1150
ECL signal [5]: 1090

Fab VH3-23_IGHD2-21*01>3_IGHJ6*01 H100E/S108P/Y113G Y114N & V2-13_IGLJ2*01
ECL multispot value [3]: 3.5

Fab VH1-46_IGHD6-6*01_IGHJ1*01 S102A/S103P/S104F/H111F (APFF) & L6_IGKJ1*01 S28T
ECL signal [18]: 676

Fab VH5-51_IGHD5-18*01>3_IGHJ4*01 G100K/G104T (H:KT) & V3-4_IGLJ1*01 S96A
ECL signal [15]: 678
ECL signal [16]: 684
ECL signal [4]: 1120
ECL signal [5]: 927
ECL signal [17]: 715

Fab VH1-46_IGHD6-6*01_IGHJ1*01 S102A/S103P/S104F/H111F (APFF) & L6_IGKJ1*01 S28Q
ECL signal [18]: 809

Fab VH3-23_IGHD2-21*01>3_IGHJ6*01 H100E/S108P/Y113G Y110H & V2-13_IGLJ2*01
ECL multispot signal (ratio to blank; column not labelled) [7]: 3.7
ECL multispot signal (ratio to blank; column not labelled) [19]: 2.9

Fab VH5-51_IGHD5-18*01>3_IGHJ4*01 G100K/G104T (H:KT) & V3-4_IGLJ1*01 V91A
ECL signal [5]: 1030

Fab VH3-23_IGHD2-21*01>3_IGHJ6*01 H100E/S108P/Y113G Y112R & V2-13_IGLJ2*01
ECL multispot value [2]: 3.7

Fab VH3-23_IGHD3-10*01>3_IGHJ6*01 Y111R & O12_IGKJ1*01
ECL signal/blank ratio [20]: 2.9
ECL signal/blank ratio [21]: 3.2
ECL signal/blank ratio [22]: 3

Fab VH5-51_IGHD5-18*01>3_IGHJ4*01 G100K/G104T (H:KT) & V3-4_IGLJ1*01 G95A
ECL signal [4]: 999
ECL signal [5]: 1090
ECL signal [17]: 707

Fab VH3-23_IGHD3-10*01>3_IGHJ6*01 Y110R & O12_IGKJ1*01
ECL signal/blank ratio [20]: 3
ECL signal/blank ratio [21]: 3
ECL signal/blank ratio [23]: 2.5
ECL signal/blank ratio [22]: 2.8

Fab VH1-46_IGHD6-6*01_IGHJ1*01 S102A/S103P/S104F/H111F I51V/N52L/S54T/G56H (APFF VLTH) & L6_IGKJ1*01 S28N/S30D/S31H S52L/A55S (NDH LS)
Notch1 luciferase reporter luminescence, T98G reporter cells + CHO-DLL4, 100 nM Fab, replicate 1 [6]: 2400
Notch1 luciferase reporter luminescence, T98G reporter cells + CHO-DLL4, 100 nM Fab, replicate 2 [6]: 2280
Notch1 luciferase reporter luminescence, T98G reporter cells + CHO-DLL4, 100 nM Fab, replicate 3 [6]: 2150
Notch1 luciferase reporter luminescence, T98G reporter cells + CHO-DLL4, 100 nM Fab, replicate 4 [6]: 2170

Fab VH3-23_IGHD2-21*01>3_IGHJ6*01 H100E/S108P/Y113G Y109G & V2-13_IGLJ2*01
ECL multispot signal (ratio to blank; column not labelled) [19]: 2.7

Fab VH5-51_IGHD5-18*01>3_IGHJ4*01 G100K/G104T W33A & V3-4_IGLJ1*01
ECL signal [24]: 513
ECL signal [25]: 921
ECL signal [26]: 788

Fab VH5-51_IGHD5-18*01>3_IGHJ4*01 G100K/G104T (H:KT) & V3-4_IGLJ1*01 L92A
ECL signal [15]: 695
ECL signal [5]: 959
ECL signal [17]: 693

Fab VH1-46_IGHD6-6*01_IGHJ1*01 S102A/S103P/S104F/H111F I51V/N52L/S54T/G56H & L6_IGKJ1*01 S28N/S30D/S31H S52L/A55S
Notch1 luciferase reporter luminescence, T98G reporter cells + CHO-DLL4, 0.8 nM Fab, replicate 1 [27]: 4740
Notch1 luciferase reporter luminescence, T98G reporter cells + CHO-DLL4, 0.8 nM Fab, replicate 2 [27]: 4890
Notch1 luciferase reporter luminescence, T98G reporter cells + CHO-DLL4, 0.8 nM Fab, replicate 3 [27]: 3820
Notch1 luciferase reporter luminescence, T98G reporter cells + CHO-DLL4, 0.8 nM Fab, replicate 4 [27]: 4080
Notch1 luciferase reporter luminescence, T98G reporter cells + CHO-DLL4, 4 nM Fab, replicate 1 [27]: 4840
Notch1 luciferase reporter luminescence, T98G reporter cells + CHO-DLL4, 4 nM Fab, replicate 2 [27]: 4880
Notch1 luciferase reporter luminescence, T98G reporter cells + CHO-DLL4, 4 nM Fab, replicate 3 [27]: 4250
Notch1 luciferase reporter luminescence, T98G reporter cells + CHO-DLL4, 4 nM Fab, replicate 4 [27]: 4670
Notch1 luciferase reporter luminescence, T98G reporter cells + CHO-DLL4, 20 nM Fab, replicate 1 [27]: 4380
Notch1 luciferase reporter luminescence, T98G reporter cells + CHO-DLL4, 20 nM Fab, replicate 2 [27]: 4480
Notch1 luciferase reporter luminescence, T98G reporter cells + CHO-DLL4, 20 nM Fab, replicate 3 [27]: 3960
Notch1 luciferase reporter luminescence, T98G reporter cells + CHO-DLL4, 20 nM Fab, replicate 4 [27]: 3990
